This is an account of results in US20040014194A1, “Beta-secretase crystals and methods for preparing and using the same” (Schering Corporation, priority 2002, published 2004).

The data set deals with T1, β-secretase purified from Sf-9 cells (Homo sapiens, UniProt P56817).
T1 construct: made in house; host or cells: Sf9 insect cells, baculovirus (Bac-to-Bac), secreted into the medium
Put plainly: HPLC assay of β-secretase enzymatic activity with a peptide substrate derived from "Swedish" amyloid protein peptide. Format: biochemical. As to conditions: proBACE compared with mature BACE. How it is done: To assess the functionality of β-secretase purified from Sf-9 cells, an HPLC assay was developed using a peptide substrate derived from the sequence of “Swedish” amyloid protein peptide (Dreyer et al., (1994) Eur J. Biochem 224: 265-271). In these assays, ProBACE (SEQ ID NO: 2) and mature BACE (SEQ ID NO: 1) were tested.

B1: proBACE: immature, soluble human β-secretase with amino-terminal propeptide, expressed in Sf9 insect cells (protein, listed as Homo sapiens)
chain: TQHGIRLPLRSGLGGAPLGLRLPRETDEEPEEPGRRGSFVEMVDNLRGKSGQGYYVEMTVGSPPQTLNILVDTGSSNFAVGAAPHPFLHRYYQRQLSSTYRDLRKGVYVPYTQGKWEGELGTDLVSIPHGPNVTVRANIAAITESDKFFINGSNWEGILGLAYAEIARPDDSLEPFFDSLVKQTHVPNLFSLQLCGAGFPLNQSEVLASVGGSMIIGGIDHSLYTGSLWYTPIRREWYYEVIIVRVEINGQDLKMDCKEYNYDKSIVDSGTTNLRLPKKVFEAAVKSIKAASSTEKFPDGFWLGEQLVCWQAGTTPWNIFPVISLYLMGEVTNQSFRITILPQQYLRPVEDVATSQDDCYKFAISQSSTGTVMGAVIMEGFYVVFDRARKRIGFAVSACHVHDEFRTAAVEGPFVTLDMEDCGYNIPQTDESTLE
B1: the “enzymatic activity with substrate Biotin-KSEVNL*DAEFRK-Fluorescein” value is given as “equivalent”.

B2: mature BACE: glycosylated, soluble fragment of mature human BACE, autoprocessed from proBACE at pH 4.0 (protein, listed as Homo sapiens)
chain: ETDEEPEEPGRRGSFVEMVDNLRGKSGQGYYVEMTVGSPPQTLNILVDTGSSNFAVGAAPHPFLHRYYQRQLSSTYRDLRKGVYVPYTQGKWEGELGTDLVSIPHGPNVTVRANIAAITESDKFFINGSNWEGILGLAYAEIARPDDSLEPFFDSLVKQTHVPNLFSLQLCGAGFPLNQSEVLASVGGSMIIGGIDHSLYTGSLWYTPIRREWYYEVIIVRVEINGQDLKMDCKEYNYDKSIVDSGTTNLRLPKKVFEAAVKSIKAASSTEKFPDGFWLGEQLVCWQAGTTPWNIFPVISLYLMGEVTNQSFRITILPQQYLRPVEDVATSQDDCYKFAISQSSTGTVMGAVIMEGFYVVFDRARKRIGFAVSACHVHDEFRTAAVEGPFVTLDMEDCGYNIPQTDESTLE
modifications: glycosylated
notes: glycosylated, soluble fragment of mature human BACE, autoprocessed from proBACE at pH 4.0
In the case of B2, the “enzymatic activity with substrate Biotin-KSEVNL*DAEFRK-Fluorescein” value is listed as “equivalent”.
